Experimental data: the supplement of paper PMC9170038

Legend:
MS2 coat protein [1] = test: apparent KD of MS2 coat protein, switch ON state; designed switch direction (-1 OFF switch, 1 ON switch): -1; higher = weaker reporter binding; conditions: FMN input: 0 or 200 uM; Eterna round: R93 (includes R88 designs)
Procedure, shortened: (§1)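 Each design's apparent KD comes from the median of binding-curve fits to its normalised clusters. Those clusters carried RNA switches transcribed on-chip from Illumina sequencing clusters. SNAP-549-labelled MS2 coat protein was titrated onto them in twofold steps (0.7 or 1.5 nM to 3 µM; per step 0.8–1.5 h down to 10–20 min). Conditions were 100 mM Tris-HCl pH 7.5, 80 mM KCl, 4 mM MgCl2, without or with constant ligand.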

MS2 coat protein [2] = test: apparent KD of MS2 coat protein, switch OFF state (with FMN for OFF switches, without FMN for ON switches); designed switch direction (-1 OFF switch, 1 ON switch): -1; higher = weaker reporter binding; conditions: FMN input: 0 or 200 uM; Eterna round: R93 (includes R88 designs)
Procedure, shortened: as §1

Row | Sequence | apparent KD of MS2 coat protein (MS2 coat protein [1]) | apparent KD of MS2 coat protein (MS2 coat protein [2])
1 | AAAAAGCGAGGAUAUACAUGAGGAUCACCCAUGUGAAAAAAAAAAUAAUAAAUAAAAGGUAGAAGGCGCAAAAA [V1] | 0.072 µM | 0.0879 µM
2 | AAAAAGUGAGGAUAUGAAAAUAAAAAAAAAAAAAAAAUAAAUCAGAAGGCACAUGAGGAUCACCCAUGUAAAAA [JR_Exc004_Sub1201] | 0.0298 µM | 0.038 µM
3 | AAAGGAUCAGGAUAUGUGUGGAAAAAGUGUAUUCAAAAAAAACAUGAGGAUCACCCAUGUAGAAGGGAUCCAAA [Mod of 2Normal (20/19) by Nando, Round 1] | 0.297 µM | 0.397 µM
4 | AAAGCACGAGGAUAUACAUGAGGAUCACCCAUGUAUAAAAAAAAAAAAAAAUCCUCAUGUAGAAGGCGUGCAAA | 0.0174 µM | 0.00978 µM
5 | AAAAAGAAAGGAUAUACGAACAUGUCGAAAGACGUGAAGGGACAUGAGGAUCACCCAUGUAGAAGGUUUAAAAA [Mat - Exclusion 2 - JL mod - D82] | 0.0252 µM | 0.0179 µM
6 | ACCGAUCGAGGAUAUACAUGAGGAUCACCCAUGUAAAGCAGAAGAAAGGCCUCAGGAUGUAGAAGGCGACGCAA [JR_Exc003_Sub405] | 0.0201 µM | 0.0283 µM
7 | CUCUAGUCAGGAUAUACAAGAAAAGAAAAGAAAGAAAAGAAGUAGAAGGGACAUGAGGAUCACCCAUGUAAGAA [EteRNA is fun!] | 0.0704 µM | 0.0915 µM
8 | GAAAAGUCAGGAUAUACAGAAAAAAAAACGAAAAAAAAUCUGUAGAAGGGACAUGAGGAUCACCCAUGUUAAAA [Mat - Exclusion 4 - Mayanna - D125] | 0.0469 µM | 0.024 µM
9 | AAAGGACGAGGAUAUACAUGAGGAUCACCCAUGUAAAGGGCAUAAAAAAAGAACUUAUGUAGAAGGCGUCCAAA [Mat - Exclusion 3 - Eli mod - D95] | 0.035 µM | 0.0268 µM
10 | UUUUGACAUGAGGAUCACCCAUGUCAGGAUAUAGUAGGAAAAAAAAAAAAAAAAACUACUAGAAGGGAUAUGGA [Design 15: Not So Super Stable 1] | 0.0217 µM | 0.0402 µM
11 | AAGAACGGAGGAUAUACAAAAUAAAAGAAAAGAAAGAAAGAACAUGAGGAUCACCCAUGUAGAAGGUCGAAGAA [Seth Meribre] | 0.0149 µM | 0.0208 µM
12 | AGGAAACAUGAGGAUCACCCAUGUAAGGAUAUGUGAAAGAAAAGAAAAGAAAGAAGAAACAGAAGGUACAAGAA [Qa'a] | 0.0463 µM | 0.0424 µM
13 | AAGACUAGAGGAUAUACAUGAGGAUCACCCAUGUAACUGUCAGAAAACUGACGGAGAAGUAGAAGGCUAGUCAA [Mat - Exclusion 3 - JL mod - D86] | 0.0169 µM | 0.0212 µM
14 | AACGCACAUGAGGAUCACCCAUGUCAGGAUAUCGUGGCGGGAAAAACCGGGAAACGCACGAGAAGGGACAAAAA [EX1 Malc#18 Mod 14 - Jieux - Exclusion 1] | 0.0476 µM | 0.0422 µM
15 | AAAAACGUAGGAUAUACAUGAGGAUCACCCAUGUAAAAAAAAAAGGGAGAAAAAAGAAGUAGAAGGACGAAAAA [JR_Exc003_Sub002] | 0.0324 µM | 0.0271 µM
16 | GGUUGAAUAGGAUAUACAUGAGGAUCACCCAUGUGAGAGAAAAAAGUGAGAAAGAAAAGUAGAAGGAUUUGACG [salish99-ex3-61] | 0.0347 µM | 0.0651 µM
17 | AUAGGCCUAGGAUAUACAUGAGGAUCACCCAUGUUAACACUGCAAUCAAGUUAAUAUUGUAGAAGGAGGAAUAA [JR_Exc003_Sub310] | 0.0263 µM | 0.0261 µM
18 | AAAGGACGAGGAUAUACAUGAGGAUCACCCAUGUAAAAAACAUAAUAAAAGAAUUUAUGUAGAAGGCGUCCAAA [69%, Moding Meechl, 1] | 0.0181 µM | 0.0171 µM
19 | AAGAAGUCAGGAUAUGCCAGAGAUCACGAAAGUGAUGAGUAGCAGAAGGGACAUGAGGAUCACCCAUGUAAAGA [Opal 6] | 0.0482 µM | 0.0465 µM
20 | AGGAAACAUGAGGAUCACCCAUGUUAGGAUAUGAACGAAAAUAAAUAAAAAUAAAAGUUCAGAAGGAACAAAAA [66%, Wbt, 18] | 0.027 µM | 0.0419 µM
